Reference: article PMC4759581, “A DNA aptamer recognising a malaria protein biomarker can function as part of a DNA origami assembly”

B1: aptamer-staple 111 Edge (ssDNA)
DNA: AAACCCTCTTTTACCAGTAATAAAAGGGATTCACCAGTCACACGTTTTCTGGGCGGTAGAACCATAGTGACCCAG
B2: aptamer-staple 211 Edge (ssDNA)
DNA: GCTAAATCTTTTCTGTAGCTCAACATGTATTGCTGACTGGGCGGTAGAACCATAGTGACCCAG
B3: aptamer staple 77 (ssDNA)
DNA: TGCTCAGTCAGTCTCTGAATTTACCAGGAGGTTTTTTTTTTTTTTTTTTTTTCTGGGCGGTAGAACCATAGTGACCCAGCCGTCTAC
B4: aptamer staple 76 (ssDNA)
DNA: TATCACCGTACTCAGGAGGTTTAGCGGGGTTTTTTTTTTTTTTTTTTTTTTTCTGGGCGGTAGAACCATAGTGACCCAGCCGTCTAC
B5: aptamer staple 85 (ssDNA)
DNA: CTTTACAGTTAGCGAACCTCCCGACGTAGGAATTTTTTTTTTTTTTTTTTTTCTGGGCGGTAGAACCATAGTGACCCAGCCGTCTAC
B6: aptamer staple 83 (ssDNA)
DNA: TTATTACGGTCAGAGGGTAATTGAATAGCAGCTTTTTTTTTTTTTTTTTTTTCTGGGCGGTAGAACCATAGTGACCCAGCCGTCTAC
B7: aptamer staple 87 (ssDNA)
DNA: TCATTACCCGACAATAAACAACATATTTAGGCTTTTTTTTTTTTTTTTTTTTCTGGGCGGTAGAACCATAGTGACCCAGCCGTCTAC
B8: aptamer staple 89 (ssDNA)
DNA: AGAGGCATAATTTCATCTTCTGACTATAACTATTTTTTTTTTTTTTTTTTTTCTGGGCGGTAGAACCATAGTGACCCAGCCGTCTAC
B9: aptamer staple 95 (ssDNA)
DNA: CGGAATTATTGAAAGGAATTGAGGTGAAAAATTTTTTTTTTTTTTTTTTTTTCTGGGCGGTAGAACCATAGTGACCCAGCCGTCTAC
B10: aptamer staple 93 (ssDNA)
DNA: GAGCAAAAACTTCTGAATAATGGAAGAAGGAGTTTTTTTTTTTTTTTTTTTTCTGGGCGGTAGAACCATAGTGACCCAGCCGTCTAC
B11: aptamer staple 81 (ssDNA)
DNA: CCGGAAACACACCACGGAATAAGTAAGACTCCTTTTTTTTTTTTTTTTTTTTCTGGGCGGTAGAACCATAGTGACCCAGCCGTCTAC
B12: aptamer staple 79 (ssDNA)
DNA: TGAGGCAGGCGTCAGACTGTAGCGTAGCAAGGTTTTTTTTTTTTTTTTTTTTCTGGGCGGTAGAACCATAGTGACCCAGCCGTCTAC
B13: aptamer staple 97 (ssDNA)
DNA: CTAAAGCAAGATAGAACCCTTCTGAATCGTCTTTTTTTTTTTTTTTTTTTTTCTGGGCGGTAGAACCATAGTGACCCAGCCGTCTAC
B14: aptamer staple 91 (ssDNA)
DNA: TATGTAAACCTTTTTTAATGGAAAAATTACCTTTTTTTTTTTTTTTTTTTTTCTGGGCGGTAGAACCATAGTGACCCAGCCGTCTAC
B15: aptamer-staple 87 Middle (ssDNA)
DNA: TCATTACCCGACAATACTGGGCGGTAGAACCATAGTGACCCAGAACAACATATTTAGGC
B16: aptamer-staple 121 Middle (ssDNA)
DNA: TTTCATTTGGTCAATACTGGGCGGTAGAACCATAGTGACCCAGACCTGTTTATATCGCG
B17: aptamer-staple 11 Edge (ssDNA)
DNA: CCTAATTTACGCTAACGAGCGTCTAATCAATACTGGGCGGTAGAACCATAGTGACCCAG

Each binder was assayed against T1, Plasmodium falciparum lactate dehydrogenase (PfLDH) (Plasmodium falciparum, UniProt Q71T02 1-316) (assay: EMSA; 4 C; Fig. S15 panel assignment of 606/355 unclear; EMSA: 25 nM strand, 0-2500 nM PfLDH (tetramer concentration in legends; text says Kd per subunit), 25 mM Tris-HCl pH 7.5, 100 mM NaCl, 20 mM imidazole, 25 C 1 h). Conditions: protein: recombinant; chain copies: 4; hairpin.

Binder	Kd [nM]
B1	606 ± 164
B2	355 ± 73

What follows are binders tested against T1, Plasmodium falciparum lactate … (assay: EMSA; apparent, 1:1 fit; EMSA: 25 nM strand, 0-2500 nM PfLDH (tetramer concentration in legends; text says Kd per subunit), 25 mM Tris-HCl pH 7.5, 100 mM NaCl, 20 mM imidazole, 25 C 1 h). Conditions: protein: recombinant; chain copies: 4; hairpin.

Binder	Kd [nM]
B3	726 ± 186
B4	965 ± 265
B5	713 ± 161
B6	1090 ± 183
B7	878 ± 154
B8	750 ± 95
B9	846 ± 161
B10	647 ± 128
B11	970 ± 254
B12	826 ± 300
B13	760 ± 126
B14	984 ± 177

Each binder was assayed against T1, Plasmodium falciparum lactate … (assay: EMSA; 4 C; EMSA: 25 nM strand, 0-2500 nM PfLDH (tetramer concentration in legends; text says Kd per subunit), 25 mM Tris-HCl pH 7.5, 100 mM NaCl, 20 mM imidazole, 25 C 1 h). Conditions: protein: recombinant; chain copies: 4; hairpin.

Binder	Kd [nM]	binding result
B15	1720 ± 244	
B16		no binding
B17	596 ± 107	
